The values that follow come from paper PMC3901395, “Multivalent interactions of the SUMO-interaction motifs in RING finger protein 4 determine the specificity for chains of the SUMO” (Biochemical Journal, 2013).

The test system of one assay is (SUMO2)4–GFP–HA2. Nature of the assay: Pulse–chase analysis of (SUMO2)4–GFP–HA2 turnover in yeast. It counts as cell-based, S. cerevisiae. The note with it: 2 min pulse labelling with [35S]methionine, anti-HA immunoprecipitation, phosphorimaging. The text has this: To correlate the strength of the interaction of RNF4 and its SIM mutants with poly-SUMOs to the activity of RNF4 in living cells, we made use of our previous findings that RNF4 is functional in yeast and disrupts PML-NBs in mammalian cells. We therefore co-expressed combinations of full-length wt RNF4 or its SIM mutants with poly-SUMO chains that retained the native N-terminus on the first SUMO moiety and were C-terminally tagged with GFP–HA in S. cerevisiae. As shown in Figures 3(A)–3(C), the poly-SUMO–GFP–HA reporter constructs were efficiently targeted for degradation. Compared with the control transformants not expressing RNF4, the levels of di-SUMO2 were reduced to approximately 55%, and this effect was enhanced if the chain was composed of three or four SUMOs (45% and 43% of control levels respectively). […]
Concentrated di-SUMO2-/Delta1N11 (10 mg/ml) in crystallization […] buffer was used for crystallization experiments by hanging-drop […] vapour diffusion. Crystals grew in a solution of 0.1 M Tris/HCl, […] pH 8.0, 28 % PEG 350 MME (Qiagen) and 0.05 % dioxane within […] 2–4 days at room temperature (21 ◦ C). […]

For the next assay, the system named is tri-SUMO2–GFP–HA2. In words: Proteasomal targeting of tri-SUMO2–GFP–HA2 by RNF4 in yeast. It counts as cell-based, S. cerevisiae. As to conditions: yeast coexpressing RNF4; Western blot, normalized to CDC11. From the text: For expression in Escherichia coli, linear poly-SUMO chains were generated as described previously with slight modifications. After the combined PCR/ligation reaction, the 4×SUMO2-ΔN11 or 4×SUMO1-ΔN15 DNA polymers were separated from smaller polymers by agarose gel electrophoresis and individually extracted (Macherey–Nagel). These were then subjected to a second PCR with primers to create BamHI and XhoI restriction sites, a C-terminal GG motif and a stop codon. The resulting fragments coding for di-, tri- and tetra-SUMO2-ΔN11 or SUMO1-ΔN15 chains were amplified and cloned into pGEX-4T2. […] Each monomer in these chains is separated by RS replacing the natural GG motif. […]
wt (wild-type) S. cerevisiae strains (JD47-13C) containing centromeric (low copy) plasmids expressing various (SUMO2)n–GFP–HA2 ([…]) fusions were grown overnight in minimal medium composed of 0.67% yeast nitrogen base with 2% raffinose as a carbon source. Cells from the overnight cultures were used to inoculate cultures with minimal media containing 2% galactose at a starting attenuance measured at 600 nm of 0.25. […] The levels of substrates and, as a loading control, levels of CDC11 were analysed by Western blotting and detection with an Odyssey infrared fluorescence imaging system (LI-COR).
Background: Immunoblotting shows a protein as a band on a membrane.

B1: RNF4 FL: full-length human RNF4 (RING finger protein 4); FLAG-tagged in yeast, HA-tagged in HeLa cells (protein)
chain: MSTRKRRGGAINSRQAQKRTREATSTPEISLEAEPIELVETAGDEIVDLTCESLEPVVVDLTHNDSVVIVDERRRPRRNARRLPQDHADSCVVSSDDEELSRDRDVYVTTHTPRNARDEGATGLRPSGTVSCPICMDGYSEIVQNGRLIVSTECGHVFCSQCLRDSLKNANTCPTCRKKINHKRYHPIYI
modifications: left off: GST, end not stated, cleaved
notes: full-length human RNF4 (RING finger protein 4); FLAG-tagged in yeast, HA-tagged in HeLa cells
In the case of B1, the “turnover of linear tetra-SUMO2 reporter, pulse–chase” value in the assay on (SUMO2)4–GFP–HA2 was “degraded upon coexpression of RNF4”. For the same molecule, in the assay with tri-SUMO2–GFP–HA2, the “level of tri-SUMO2–GFP–HA reporter (control without RNF4 = 100%)” value is given as 45%.
